The text below walks through data of publication PMC6352652, “Targeting early changes in the synovial microenvironment: a new class of immunomodulatory therapy?” (Annals of the Rheumatic Diseases, 2018).

Test [1] has as its target T1, fibrinogen-like globe (FBG) domain of human tenascin-C (human, UniProt P24821).
T1 construct: tenascin-C, human, fibrinogen-like globe (FBG) domain at the C-terminus; contact residues are numbered A2115 to H2175; the constructs used for SPR, the crystal and the solid phase assay may differ; also called human FBG; recombinant human tenascin-C FBG; source: recombinant
The experiment in a line: ELISA; solid phase binding assay: recombinant human TLR4 coated onto a 96-well plate; recombinant human FBG preincubated with C3 or isotype control antibody was added; bound FBG detected. Particulars: both partners purified. On the technique in general: In an ELISA, binding on a coated surface is turned into a signal by an enzyme label.

For test [2], the target named is T1, fibrinogen-like globe (FBG) domain of …. The experiment in a line: SPR; at 37°C; C3 on human and rat FBG; who was immobilised not stated.
Test [3] addresses T2, FBG domain of rat tenascin-C (Rattus norvegicus, UniProt A0A8I6AG89).
T2 construct: tenascin-C, rat, fibrinogen-like globe (FBG) domain; Printed only as 'rat antigen'; construct in the supplementary methods; also called rat antigen
The description is as above.

T1 sequence (P24821 1975-2201): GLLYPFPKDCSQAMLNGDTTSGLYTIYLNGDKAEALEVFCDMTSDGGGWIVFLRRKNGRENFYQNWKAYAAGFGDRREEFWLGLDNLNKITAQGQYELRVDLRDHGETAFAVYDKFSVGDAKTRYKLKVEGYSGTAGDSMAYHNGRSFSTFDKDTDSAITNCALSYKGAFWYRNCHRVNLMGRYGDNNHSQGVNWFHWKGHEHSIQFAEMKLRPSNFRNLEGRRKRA

B1: monoclonal antibody C3 (antibody, V domains shown)
VH: QVQLVESGGGLVQPGRSLRLSCAASGFTFDDYAMHWVRQAPGKGLEWVSGISGSGGSTYYADSVKGRFTISRDNAKNSLYLQMNSLRAEDTALYYCAKSYQSDEDAFDIWGQGTMVTVSS
VL: DIQMTQSPASLPTPVGDRVTITCRASQYIQGFLNWYQQKPGKAPKLLIYDASNLETGVPSRFSGSGSGTDFTLTISSLQPEDFATYYCQQSYSTPQTFGQGTKVDIK
notes: variable part as the heavy chain of m2 (crystal structure solved here, Fab chain B); as the light chain of m2 (crystal structure solved here, Fab chain C); in the solid phase and cell assays it is compared with an isotype control antibody; also called clone C3
As for B1, in test [1], the IC50 was found to be 45.6 nM. Besides, the dissociation constant (Kd) is 0.07 nM in test [2] and 1.2 nM in test [3].

What is called IC50 is the concentration that inhibits the measured activity by half. In general, Kd refers to the concentration at which binding is half-saturated.
